This note sets out measurements from patent publication US10889844B2, “Methods of degrading or hydrolyzing a polysaccharide” (Novozymes A/S, priority 2010, dated 2021).

The nature of experiment [1]: Cellulase boosting properties of CelS2 at various pHs with monocomponent Cel7A. Conditions: Cel7A. It is filed as biochemical. The source says:
When probing the cellulose boosting properties of CelS2 at various pHs using monocomponent Cel7A as the cellulose hydrolytic component, pH 5.5 came out as the optimal pH for activity. […] The most obvious reason for the decrease in cellulose hydrolysis at increasing pH is the pH stability and efficiency of Cel7A. […] CelS2 is a bacterial enzyme that originates from Streptomyces species that are known to grow optimally on cellulosic substrates in approximately neutral pH conditions (Kontro et al., 2005, Letters in Applied Microbiology 41: 32-38.).

A short description of experiment [2]: Soluble products released from AVICEL by CBM33 proteins (MALDI-TOF MS, HPAEC). It is filed as biochemical. Conditions: with external electron donor (ascorbic acid or reduced glutathione).
Method: The main peaks are annotated with molecular weight and degree of polymerization (DP).
The DP of the oxidized cellooligosaccharides is indicated by n, where n=3 (the shortest labelled oxidized cellooligosaccharide has a DP of three (=n)). […] Peak annotation was performed by comparing the chromatogram with the chromatogram obtained for a chemically prepared mixture of oxidized cellooligosaccharides with lengths varying from DP1 to DP10.
The main peaks are annotated with molecular weight and degree of polymerization (DP). All annotated peaks are Na adducts of native cellooligosaccharides, oxidized cellooligosaccharides (denoted “ox”) or the sodium salts of oxidized cellooligosaccharides.
Products were analyzed after 20 hours of incubation in 20 mM ammonium acetate buffer pH 5.0, 1 mM MgCl2 at 50° C. and 900 rpm (vertical agitation).
Separation of native and oxidized cellooligosaccharides was achieved using a Dionex Bio-LC equipped with a CarboPack PA1, a column temperature of 30° C. and a flow of 0.25 ml/min, with starting conditions, i.e., 0.1 M NaOH. A stepwise linear gradient with increasing amounts of sodium acetate was applied, going from 0.1 M NaOH and 0.1 M sodium acetate in 10 minutes, then to 0.1 M NaOH and 0.3 M sodium acetate for 25 minutes then increasing to 0.1 M NaOH and 1.0 M sodium acetate at 30 minutes which was kept for 10 minutes. Column reconditioning was achieved by a one minute gradient to initial conditions and subsequent running at initial conditions for 14 minutes. Eluted oligosaccharides were monitored by PAD detection. Chromatograms were recorded and analysed using Chromeleon 7.0 Peak identification was achieved by a procedure including the following steps: oxidized cellooligosaccharides were separated using a Dionex Ultimate 3000 UHPLC system carrying a Hypercarb 150×2.1 mm column (Thermo Scientific) running a gradient of water/0.1% TFA and acetonitrile/0.1% TFA (from 20 to 80% acetonitrile) according to the method developed by Westphal et al., 2010, Journal of Chromatography A 1217: 689-695. Eluted peaks were manually fractioned, freeze-dried, re-dissolved in MilliQ water and identified using MALDI-TOF MS. Pure oxidized cellooligosaccharides with known identity were then analyzed using the HPEAC method described above in order to establish the identity of the oxidized cellooligosaccharides generated by CelS2 and E7.
Assays performed to evaluate the function of E7 and CelS2 were set up using a variety of cellulosic substrates (AVICEL®, filter paper and steam exploded wood chips from poplar), at either pH 5.5 (20 mM sodium acetate buffer), 6.5 (20 mM Bis-Tris buffer) or 8.0 (20 mM Tris buffer) in reaction mixtures containing 1.0 mM MgCl2.

B1: Cel7A: family GH7 cellulase from Hypocrea jecorina purified from CELLUCLAST (protein, UniProt P62694 18-513, looked up)
Exoglucanase 1: QSACTLQSETHPPLTWQKCSSGGTCTQQTGSVVIDANWRWTHATNSSTNCYDGNTWSSTLCPDNETCAKNCCLDGAAYASTYGVTTSGNSLSIGFVTQSAQKNVGARLYLMASDTTYQEFTLLGNEFSFDVDVSQLPCGLNGALYFVSMDADGGVSKYPTNTAGAKYGTGYCDSQCPRDLKFINGQANVEGWEPSSNNANTGIGGHGSCCSEMDIWEANSISEALTPHPCTTVGQEICEGDGCGGTYSDNRYGGTCDPDGCDWNPYRLGNTSFYGPGSSFTLDTTKKLTVVTQFETSGAINRYYVQNGVTFQQPNAELGSYSGNELNDDYCTAEEAEFGGSSFSDKGGLTQFKKATSGGMVLVMSLWDDYYANMLWLDSTYPTNETSSTPGAVRGSCSTSSGVPAQVESQSPNAKVTFSNIKFGPIGSTGNPSGGNPPGGNRGTTTTRRPATTTGSSPGPTQSHYGQCGGIGYSGPTVCASGTTCQVLNPYYSQCL
Turning to B1, the “cellulase activity at pH 8.0” value in experiment [1] was “close to inactive”.

B2: CBM33 domain: recombinantly produced N-terminal CBM33 domain of CelS2 (SEQ ID NO: 22) (protein)
chain: HGVAMMPGSRTYLCQLDAKTGTGALDPTNPACQAALDQSGATALYNWFAVLDSNAGGRGAGYVPDGTLCSAGDRSPYDFSAYNAARSDWPRTHLTSGATIPVEYSNWAAHPGDFRVYLTKPGWSPTSELGWDDLELIQTVTNPPQQGSPGTDGGHYYWDLALPSGRSGDALIFMQWVRSDSQENFFSCSDVVFDGG
modifications: Streptomyces coelicolor
On to B2, for which the “release of soluble native/oxidized cellooligosaccharides from AVICEL” value in experiment [2] is on record as “shows activity on AVICEL® without its CBM2, although lower than the activity of the whole protein”.
